The source of these data is US20040023887A1 (published 2004).

For test [1], the target named is T1, soluble human insulin receptor-immunoglobulin heavy chain chimera (human, UniProt P06213 28-956, limits assumed).
T1 construct: extracellular domain; also called sIR-Fc; IR (prepared according to Bass et al., 1996); not shown: immunoglobulin heavy chain constant domains (Bass et al., 1996)
Put plainly: phage ELISA.

Test [2] addresses T2, soluble IGF-1R (recombinant human IGF-1R extracellular domain, R&D Systems Cat. # 391-GR/CF) (human, UniProt P08069 31-935).
T2 construct: extracellular domain; Bought protein; coated on plates (phage ELISA, TRF) or Eu-labelled (TR-FRET); also called sIGF-1R; rhIGF-1R
In words: phage ELISA. For orientation: In an ELISA, binding on a coated surface is turned into a signal by an enzyme label.

As to SSCDGAGHESFYEWFVRQVSGCRSV (on phage) [H2CA-3-C6-IGFR], the ratio over background in test [1] is 1.2 ratio; in test [2], 5.6 ratio.
On the same counts, the results for APDPSDFQEIFYDWFVRQVSRMPGGG (on phage) [H2CA-1-A3-IGFR] are 0.8 ratio and 3.8 ratio.
On the same counts, the results for GCEVIVEEGDSADPFYHKLSELCQGS (on phage) [B6Hα-2-D1-IR] are 1.3 ratio and 5.4 ratio.
As to IIGGFYSYFNSVLRLGT (on phage) [NNRPγ-4-A1-IR], the ratio over background in test [1] came out at 1.8 ratio; in test [2], 10.9 ratio.
QAVQPGFHEEFYDWFVRQVSTGVGGG (on phage) [H2CA-4-H4-IGFR]: the ratio over background in test [1] came to 1 ratio; in test [2], 4.1 ratio.
On to RCQGTGFYTCIQELIGFGDPD (on phage) [20E2B-4-H9-IGFR], for which the ratio over background was 0.9 ratio in test [1] and 5.2 ratio in test [2].
Regarding ICTGQGFYQVLCGLLRGTSAR (on phage) [20E2B-2-B3-IGFR], the ratio over background in test [1] was 0.7 ratio; in test [2] it was 5.3 ratio.
Turning to RAGSSDFHEDFYEWFVRQVSLSLKGK (on phage) [H2CA-2-B9-IGFR], the results for the ratio over background in test [1] and in test [2] were 1.7 ratio and 7 ratio, respectively.
The corresponding values for CCLLCRFQQNFYDWFVCQGISRLRPL (on phage) [H2CA-2-B4-IGFR] are 1.1 ratio and 4.1 ratio.
The corresponding values for FYVQQWGHENFYDWFDRQVSQSGGAG (on phage) [H2CA-4-F1-IGFR] are 0.9 ratio and 3.5 ratio.
The corresponding values for RFDPFYSYFVNLLGASA (on phage) [NNRPγ-4-A7-IR] are 1.3 ratio and 6.3 ratio.
For the molecule AETSVQVGWIRLQSVWPGEHWNTVDPFYHKLSELLRGSGA (on phage) [B6L-4-D7-IR], the ratio over background was determined as 1.4 ratio in test [1] and 4.8 ratio in test [2].
As for GGTKAVAKVGTRDDPFYHKLSELLQGS (on phage) [B6Hα-4-G8-IR], the ratio over background in test [1] is 1.7 ratio; in test [2], 6.1 ratio.
The corresponding values for FFYRCLSRLLGGQLGSRLGLSCIGD (on phage) [20C-3-E4-IGFR] are 1.3 ratio and 7.7 ratio.
The corresponding values for RQGTGSFYLMLEQLLVGARGP (on phage) [20E2B-4-G11-IGFR] are 0.6 ratio and 4.5 ratio.
Turning to GIISQSCPESFYDWFAGQVSDPWWCW (on phage) [H2CA-4-G9-IGFR], the ratio over background in test [1] was 0.6 ratio; in test [2], 9.5 ratio.
The corresponding values for GCVVEWQKWHGASDPFYHKLSELGGCS (on phage) [B6Hα-3-F10-IR] are 1.9 ratio and 8.8 ratio.
Take LSVALSFYDALGQLVAGEGRW (on phage) [20E2A-3-A12-IGFR]: the ratio over background in test [1] was 1.1 ratio; in test [2], 4.3 ratio.
The corresponding values for AVRATRFDEAFYDWFVRQISDGQGNK (on phage) [H2CA-4-F6-IGFR] are 1.1 ratio and 7.3 ratio.
The corresponding values for DSVGDNFYQLLESLVGGHGVG (on phage) [20E2B-3-D6-IGFR] are 2.6 ratio and 17.8 ratio.
The corresponding values for ASSASGFYELLQRLAGLGLEV (on phage) [20E2B-3-C4-IGFR] are 3.3 ratio and 20.4 ratio.
As for VGTVAGFYDAIAQLVARASRV (on phage) [20E2A-3-C7-ICFR], the ratio over background stood at 1.1 ratio in test [1] and 5.4 ratio in test [2].
As for MMVVDGFYDALHQLVVAQSLG (on phage) [20E2A-3-D10-IGFR], the values for the ratio over background in test [1] and in test [2] were 1.8 ratio and 6.9 ratio, respectively.
As for LRRQAPVEENFYDWFVRQVSGDRVGG (on phage) [H2CA-3-D7-IGFR], the ratio over background stood at 0.8 ratio in test [1] and 3 ratio in test [2].
The corresponding values for PPLASDLDVQFYGWFVQQVSPPGRGG (on phage) [H2CA-2-B3-IGFR] are 1 ratio and 3.8 ratio.
For the molecule QSPVGSSHEDFYDWFFRQVAQSGAHQ (on phage) [H2CA-3-D6-IGFR], the ratio over background in test [1] was 2.2 ratio; in test [2], 9 ratio.
On the same counts, the results for LGVTDGFYAALGYLIHGVGQF (on phage) [20E2B-3-D11-IGFR] are 1.6 ratio and 12.2 ratio.
Turning to GFREGNFYEWFQAQVT (on phage) [E4Dα-4-H2-IR], the ratio over background stood at 8.2 ratio in test [1] and 33.9 ratio in test [2].
On the same counts, the results for SAAQLFFQESFYDWFLRQVAESSQPN (on phage) [H2CA-4-F11-IGFR] are 1 ratio and 6.8 ratio.
Regarding LSSDGQFYRALNLLLQGSAGR (on phage) [20E2B-2-B7-IGFR], the ratio over background in test [1] is 0.9 ratio; in test [2] it was 6.1 ratio.
On to TLDGGSFEEQFYDWFVRQLSYRTNPD (on phage) [H2CA-4-G11-IGFR], for which the ratio over background in test [1] is 2.5 ratio; in test [2], 9.5 ratio.
On the same counts, the results for VNQSGSIHENFYDWFERQVSHQRGVR (on phage) [H2CA-4-F10-IGFR] are 1 ratio and 5.7 ratio.
On the same counts, the results for QGNVLDFYGWIGRLLAKQGSD (on phage) [20E2B-3-D12-IGFR] are 0.9 ratio and 6.2 ratio.
The corresponding values for RCGRELYHSTFYDWFDRQVAGRTCPS (on phage) [H2CA-1-A7-IGFR] are 0.6 ratio and 2.2 ratio.
On to PAGPCGFYCGLGLLLHGDQSP (on phage) [20E2B-4-H8-IGFR], for which the ratio over background in test [1] came out at 0.9 ratio; in test [2], 5.3 ratio.
On the same counts, the results for RGKTAAVIVGRPADPFYHKLSELLQGG (on phage) [B6Hα-3-E8-IR] are 1.1 ratio and 5.3 ratio.
On the same counts, the results for IWATGDFYRLLSQLVMGRVGT (on phage) [20E2B-2-28-IGFR] are 0.8 ratio and 5.7 ratio.
The corresponding values for SGAKVIVVTGDSGDPFYHKLSELLQGS (on phage) [B6Hα-2-C10-IR] are 1.1 ratio and 5.8 ratio.
Take VATSQGFYSGLSELLQGGGNV (on phage) [20E2B-3-E12-IGFR]: the results for the ratio over background in test [1] and in test [2] were 0.8 ratio and 6 ratio, respectively.
For the molecule TLRSPTFYDWLEMVLTHGQGG (on phage) [20E2B-1-A8-IGFR], the ratio over background in test [1] came out at 0.9 ratio; in test [2] it was 4.4 ratio.
The corresponding values for SSIGGGFHENFYDWFSRQLSQSPPLK (on phage) [H2CA-4-F7-IGFR] are 0.8 ratio and 3.2 ratio.
As to EGSGFYGYFFSLLGLQG (on phage) [NNRPγ-4-A9-IR], the ratio over background in test [1] is 1.4 ratio; in test [2], 10 ratio.
The corresponding values for SRAKVEAEMPDSGDPFYHKLSELLASG (on phage) [B6Hα-1-A3-IR] are 0.8 ratio and 2.6 ratio.
On the same counts, the results for GCAVVEEAERSRGDPFYHKLSELIQGC (on phage) [B6Hα-3-E7-IR] are 1.3 ratio and 5.6 ratio.
On the same counts, the results for NYRRQVFNGNFYDWFDRQVFSLVTPG (on phage) [H2CA-3-D8-IGFR] are 1.8 ratio and 7.2 ratio.
